Data: patent US7998940B2, “Aptamers to von Willebrand factor and their use as thrombotic disease therapeutics” (Archemix Corp., priority 2004, dated 2011)
Residue numbers refer to the chain shown, from its start. Where two headings read alike, the source gives them in different places. Oligonucleotides are written 5' to 3', each unit as a sugar letter and its base; * is a phosphorothioate linkage, no mark a phosphodiester; rarer units and linkages stand in square brackets, end groups in braces. Plain capitals give the bases only. d = 2'-deoxy (DNA); r = 2'-OH (RNA); f = 2'-fluoro

B1: AMX236.C1: DNA SELEX 2 aptamer clone (nucleic acid)
chain: CTACCTACGATCTGACTAGCGGAATGAGAATGTTGGTGGATTGCTCAGGTCTGCTGGCTGCTTACTCTCATGTAGTTCC
modifications: DNA, backbone not given here
notes: DNA SELEX 2 aptamer clone
B2: AMX237.C1: DNA SELEX 2 aptamer clone (nucleic acid)
DNA: B1 chain with A29G, T33C
modifications: DNA, backbone not given here
notes: DNA SELEX 2 aptamer clone
B3: AMX238.A11: DNA SELEX 2 aptamer clone (nucleic acid)
DNA: B1 chain with A30G
modifications: DNA, backbone not given here
notes: DNA SELEX 2 aptamer clone
B4: AMX237.B12: DNA SELEX 2 aptamer clone (nucleic acid)
DNA: B1 chain with T33C, T34A
modifications: DNA, backbone not given here
notes: DNA SELEX 2 aptamer clone
B5: AMX238.A6: DNA SELEX 2 aptamer clone (nucleic acid)
DNA: B1 chain with T33C, T34A, G36A
modifications: DNA, backbone not given here
notes: DNA SELEX 2 aptamer clone
B6: AMX236.A11: DNA SELEX 2 aptamer clone (nucleic acid)
chain: CTACCTACGATCTGACTAGCTTGGTAGCGACTCTGTGGAGCTGCGGTCTGGCCGACGTCAGCTTACTCTCATGTAGTTCC
modifications: DNA, backbone not given here
notes: DNA SELEX 2 aptamer clone
B7: AMX237.D5: DNA SELEX 2 aptamer clone (nucleic acid)
DNA: B6 chain with T32A, C48T, C52T, C53T
modifications: DNA, backbone not given here
notes: DNA SELEX 2 aptamer clone
B8: AMX237.H8: DNA SELEX 2 aptamer clone (nucleic acid)
DNA: B6 chain with C33T, C48T, C52T, G57A
modifications: DNA, backbone not given here
notes: DNA SELEX 2 aptamer clone
B9: AMX237.H10: DNA SELEX 2 aptamer clone (nucleic acid)
DNA: B6 chain with T34A, T36A, C48T, C52T
modifications: DNA, backbone not given here
notes: DNA SELEX 2 aptamer clone
B10: AMX236.E6: DNA SELEX 2 aptamer clone (nucleic acid)
chain: B6 chain with T32C, C48T, C52T
modifications: DNA, backbone not given here
notes: DNA SELEX 2 aptamer clone
B11: AMX236.G4: DNA SELEX 2 aptamer clone (nucleic acid)
chain: B6 chain with C33T, C41A, C48T, C52T, C53T
modifications: DNA, backbone not given here
notes: DNA SELEX 2 aptamer clone
B12: AMX236.C12: DNA SELEX 2 aptamer clone (nucleic acid)
chain: B6 chain with T34C, C48T, C52T
modifications: DNA, backbone not given here
notes: DNA SELEX 2 aptamer clone
B13: AMX.236.G1 (nucleic acid)
chain: CTACCTACGATCTGACTAGCCTCAGATTGACTCCGGCTGACTTGTTTTAATCTTCTGAGTGCTTACTCTCATGTAGTTCC
modifications: DNA, backbone and methylation of C not given here
B14: AMX238.F5: DNA SELEX 2 aptamer clone (nucleic acid)
DNA: CTACCTACGATCTGACTAGCGGAATGAGAAGCTGGTGGATTGCTCAGGTCTGCTGGCTGCTTACTCTCATGTAGTTCC
modifications: DNA, backbone not given here
notes: DNA SELEX 2 aptamer clone

Legend:
[1] = tested on: full length human vWF binding to lyophilized platelets; assay: Full length human von Willebrand Factor platelet binding assay (FACS); type: cell-based; settings: 5 nM full length human vWF, lyophilized platelets, botrocetin; for Inhibition of full length hVWF binding in FACS assay, IC50 range: both bounds in nM
Procedure: The amount of vWF bound to fixed platelets can be measured with an antibody to vWF. The fluorescence signal from bound antibody incubated with a fluorescein conjugated secondary antibody is then detected and quantified by flow cytometry. The ability of an aptamer of the invention to block vWF binding to platelets is correlated with a reduction in fluorescence signal.
Aptamer potency to block human vWF binding to lyophilized platelets was assessed by flow cytometric analysis. Titrations of aptamers (0 nM, 0.1 nM to 1000 nM) were pre-incubated briefly with 5 nM of full length human vWF in FACS buffer (PBS plus 0.5% bovine serum albumin) at room temperature in a volume of 50 uL. Another 50 uL containing 5 uL of lyophilized platelets plus 1 uL of 0.1 U/uL of botrocetin in FACS buffer was added to aptamer/vWF. This reaction was allowed to proceed for 15 minutes at 37 degrees C. after which 200 uL of FACS buffer was added. Platelets were collected by a 6 minute spin at 1470 RCF and the supernatant was discarded. The pellets were resuspended in 100 uL of FACS buffer containing a 1:100 dilution of anti-vWF antibody and were incubated at room temperature for 30 minutes. After dilution with 200 uL of FACS buffer, the platelets were spun at 1470 RCF for 6 minutes and the supernatant was discarded. The pellets were resuspended in a 1:100 solution of anti-IgG2a-FITC antibody and were incubated in the dark for 30 minutes at room temperature. The entire 100 uL was diluted into 200 uL of FACS buffer and analyzed immediately by flow cytometric analysis in the FACSCAN. Artifactual data from contaminating debris was eliminated from the analysis by drawing a gate around the population of single and aggregated platelets. Mean fluorescent intensity (“MFI”) readings were quantified for each sample analyzed by flow cytometry. Background MFI was subtracted from all data points. Percent inhibition was reported by calculating the percent value of binding of full length human vWF to platelets in the presence of aptamer at a given concentration relative to binding in the absence of any aptamer (see FIG. 7). IC50 values were determined by fitting the percent inhibition of vWF binding to platelets as a function of aptamer concentration to the equation: % inhibition=% inhibitionmax/(1+IC50/aptamer conc.)

[2] = tested on: full length human vWF (SEQ ID NO 7); assay: dot blot KD determination and extent of binding, full length human vWF; settings: rRdY minimers; 8 point titration 0-300 nM; read-out: Full length human vWF KD;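 also: dot blot binding of aptamers to full length human vWF across a protein titration, incubated 30 minutes at room temperature in 1x DPBS with BSA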
[3] = tested on: rabbit vWF A1 domain (SEQ ID NO 6); assay: 3-point dot blot screen, rabbit vWF A1 domain; type: binding; settings: 3-point dot blot screen, 20 nM rabbit vWF A1 domain; ratio of fraction of aptamer bound with target protein to fraction bound without protein
Sequence of rabbit vWF A1 domain (SEQ ID NO 6) (as listed by the source): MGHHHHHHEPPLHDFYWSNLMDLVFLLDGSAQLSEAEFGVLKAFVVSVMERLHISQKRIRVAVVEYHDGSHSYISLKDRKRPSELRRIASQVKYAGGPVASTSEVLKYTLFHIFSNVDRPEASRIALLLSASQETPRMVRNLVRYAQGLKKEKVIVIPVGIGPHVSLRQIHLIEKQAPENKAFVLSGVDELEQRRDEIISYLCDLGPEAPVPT
Method in brief: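 Rabbit vWF A1 domain binding was screened by dot blot using three conditions: no target protein, human vWF, and rabbit vWF A1 domain at 100 nM (20 nM in the screen run twice). Radiolabeled aptamer bound to nitrocellulose was quantified, and results are expressed as the ratio of bound fraction with protein to bound fraction without protein.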

[4] = tested on: full length human vWF; assay: 3-point dot blot screen, full length human vWF; type: binding; settings: 20 nM full length human vWF, ratio of fraction of aptamer bound with target protein to fraction bound without protein
From the text: When a significant positive ratio of binding of DNA in the presence of human or rabbit vWF A1 domain versus in the absence of protein was seen, the pools were cloned using the TOPO TA cloning kit (Invitrogen Cat. #45-0641, Carlsbad, Calif.) according to the manufacturer's instructions. Round 7 and 11 pool templates were cloned and sequenced (218 total sequences), producing 146 unique clones within 12 sequence families of which sequences from six families show vWF target binding activity. All unique clones were assayed twice in a 3-point dot blot screen (no protein target control, 20 nM full length human vWF (Calbiochem Cat. #681300, La Jolla, Calif.), or 20 nM rabbit vWF A1 domain. The data is presented in the third and fourth columns of Table 17 below as the ratio of the fraction of the aptamer bound to the nitrocellulose in the presence of the target protein to the fraction of aptamer bound in the absence of the target protein.

[5] = read-out: Inhibition of full length hVWF binding in FACS assay, Average IC50
[6] = units in the cell: lower bound pM, upper bound nM, read-out: Inhibition of full length hVWF binding in FACS assay, IC50 range

| Molecule | Screen Rabbit/No Protein [3] | Screen- Human/No Protein [4] | other results |
| --- | --- | --- | --- |
| GGTAGCGACTCTGTGGAGCTGCGGTTTGG (DNA, backbone not given here) [SEQ ID NO 211, minimized DNA aptamer] | – | – | Inhibition of full length hVWF binding in FACS assay, IC50 range [1]: no activity |
| GGAGCGCACTCAGCCACACGACATTGGCGGGTTGTAATTACCACGCATGGCTG (chemistry not given here) [SEQ ID NO 186, minimized rRdY aptamer] | – | – | IC50 [1, 5]: 1300 pM; IC50 [1, 6]: 971 to 2200 pM |
| GGAGCCACACGACATTGGCGGGTTGTAATTACCACGCATGGCTCC (rGrGrArGdCdCrAdCrAdCrGrAdCrAdTdTrGrGdCrGrGrGdTdTrGdTrArAdTdTrAdCdCrAdCrGdCrAdTrGrGdCdTdCdC) [SEQ ID NO 189, minimized rRdY aptamer] | – | – | Kd [2]: 1 nM; IC50 [1, 5]: 1100 pM; IC50 [1, 6]: 564 to 1600 pM |
| GGAGCTCCAGTGTTTTATCTAATAACCGTGCGGTGCCTCCGTGAGCTCC (chemistry not given here) [SEQ ID NO 209, minimized DNA aptamer] | – | – | Inhibition of full length hVWF binding in FACS assay, IC50 range [1]: no activity |
| GGAGCGCACTCAGCCACGGGGTGGGTAGACGGCGGGTATGTGGCT (chemistry not given here) [SEQ ID NO 177, minimized rRdY aptamer] | – | – | IC50 [1, 5]: 3000 pM |
| GGAGCCACACGAGAGTGGCGGGTTGTAATTACCACGCATGGCTCC (chemistry not given here) [SEQ ID NO 196, minimized rRdY aptamer] | – | – | Inhibition of full length hVWF binding in FACS assay, IC50 range [1]: no activity |
| GGAGCCACACGACATTGGCGAGAGCCACGCATGGCTCC (chemistry not given here) [SEQ ID NO 194, minimized rRdY aptamer] | – | – | Inhibition of full length hVWF binding in FACS assay, IC50 range [1]: no activity |
| GGAGCTGCGGTTTGGTCGACGTCAGCTCC (DNA, backbone not given here) [SEQ ID NO 210, minimized DNA aptamer] | – | – | Inhibition of full length hVWF binding in FACS assay, IC50 range [1]: no activity |
| GGAGCGCACUCAGCCACCCUCGCAAGCAUUUUAAGAAUGACUUGUGCCGCUGGCU G (rGrGrArGfCrGfCrAfCfUfCrArGfCfCrAfCfCfCfUfCrGfCrArArGfCrAfUfUfUfUrArArGrArAfUrGrAfCfUfUrGfUrGfCfCrGfCfUrGrGfCfUrG) [SEQ ID NO 165, minimized rRfY aptamer] | – | – | IC50 [1, 5]: 6400 pM; IC50 [1, 6]: 562 to 14400 pM |
| GGACCACCCUCGCAAGCAUUGAGAAAUGACUUGUGCCGCUGGUCC (rGrGrAfCfCrAfCfCfCfUfCrGfCrArArGfCrAfUfUrGrArGrArArAfUrGrAfCfUfUrGfUrGfCfCrGfCfUrGrGfUfCfC) [SEQ ID NO 172, minimized rRfY aptamer] | – | – | IC50 [1, 5]: 4300 pM |
| GGACCACCCUCGCAAGCAUUUUAAGAAUGACUUGUGCCGCUGGUCC (rGrGrAfCfCrAfCfCfCfUfCrGfCrArArGfCrAfUfUfUfUrArArGrArAfUrGrAfCfUfUrGfUrGfCfCrGfCfUrGrGfUfCfC) [SEQ ID NO 169, minimized rRfY aptamer] | – | – | IC50 [1, 5]: 6900 pM; IC50 [1, 6]: 103 to 17000 pM |
| B1 | 3.28 | 1.03 | – |
| B2 | 3.47 | 0.76 | – |
| B3 | 4.54 | 0.85 | – |
| B4 | 4.67 | 1.13 | – |
| B5 | 3.47 | 0.92 | – |
| B6 | 2.02 | 2.02 | – |
| B7 | 1.48 | 1.41 | – |
| B8 | 1.41 | 1.21 | – |
| B9 | 1.94 | 1.71 | – |
| B10 | 1.49 | 1.31 | – |
| B11 | 1.72 | 1.70 | – |
| B12 | 2.24 | 1.99 | – |
| B13 | – | – | IC50 [1, 5]: 46000 pM |
| B14 | 4.40 | 1.05 | – |
